According to the supplement of paper PMC9732359:
± gives the uncertainty stated by the source.

Assay: protein stability index of a GFP-peptide fusion (yeast GPS) (PSI 1-4); higher = more stable; sorted into four equal gates, so the index is relative within each strain
Procedure, shortened: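 Yeast carrying a pooled library were grown to mid-log phase in leucine-free medium. Each library plasmid expresses Cherry and has a tiled 17-residue yeast protein peptide fused downstream of GFP. Cells were sorted into four equal gates by GFP/Cherry ratio, and plasmids from each gate were PCR-amplified, Illumina-sequenced and assigned to strains by barcode. Summing, across gates, the read frequency times the gate number gave each peptide's protein stability index.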

Sequence | protein stability index (doa10∆) | protein stability index (pdr5∆) | protein stability index (san1∆) | protein stability index (ubr1∆)
GKAATAKETHTKPSETP [YOR098C/NUP1] | 2.57 ± 0.098 | 2.84 ± 0.094 | 2.76 ± 0.077 | 2.37 ± 0.091
GKASLFAQGKRRYDRKQ [RPL42A] | 3.28 ± 0.11 | 3.09 ± 0.1 | 3.4 ± 0.088 | 3.4 ± 0.072
GKEHIVAALVSLTEKFS [ECM29] | 1.73 ± 0.047 | 1.95 ± 0.055 | 1.58 ± 0.084 | 1.63 ± 0.042
GKGIKLSIAEERDRRRA [RPS4A] | 2.59 ± 0.12 | 2.87 ± 0.16 | 3.35 ± 0.072 | 3.23 ± 0.09
GKHLSYQRSKRVNNPNV [RPL33A] | 2.32 ± 0.047 | 1.92 ± 0.038 | 2.01 ± 0.069 | 2.78 ± 0.041
GKIEKIAQSKKKNNKIK [SRP21] | 3.11 ± 0.094 | 3.02 ± 0.078 | 3.01 ± 0.066 | 3.14 ± 0.057
GKKKSATAVAHVKAGKG [RPS16A] | 2.86 ± 0.094 | 2.69 ± 0.073 | 2.49 ± 0.11 | 2.53 ± 0.11
GKKVLNKNQLLKRNRIR [POP1] | 2.88 ± 0.068 | 3.08 ± 0.055 | 2.94 ± 0.064 | 3.05 ± 0.053
GKPSFVFGASDKQAEGT [YOR098C/NUP1] | 3.33 ± 0.13 | 3.07 ± 0.12 | 3.07 ± 0.12 | 3.29 ± 0.087
GKRQVLLRPSSKVIIKF [RPS22B] | 2.83 ± 0.1 | 2.21 ± 0.055 | 3.25 ± 0.057 | 2.15 ± 0.049
GKTDYYQRKRLVTQHKA [RPL5] | – | – | – | 3.69 ± 0.22
GKTGLSNMILGSVELST [YML103C/NUP188] | 2.24 ± 0.056 | 2.57 ± 0.086 | 2.34 ± 0.069 | 2.33 ± 0.042
GKTLAFVIPILIKMSRS [PRP28] | 1.38 ± 0.071 | 1.62 ± 0.079 | 1.22 ± 0.19 | –
GKTYMGWWGHMGGPKQK [QCR8] | 1.88 ± 0.22 | 1.79 ± 0.11 | 1.63 ± 0.19 | 2.4 ± 0.14
GKVRLWKATYSNEFKCM [YGL100W/SEH1] | 2 ± 0.041 | 1.84 ± 0.053 | 1.78 ± 0.048 | 2.22 ± 0.03
GLAVGLALINYGRQELA [RPN2] | 1.3 ± 0.11 | 1.21 ± 0.076 | 1.58 ± 0.24 | 1.09 ± 0.053
GLESLLNIGLGAVGLKD [YCS4] | 2.77 ± 0.1 | 2.61 ± 0.15 | 2.89 ± 0.13 | 2.68 ± 0.065
GLHPFEVAQLGSLACDT [RPB4] | 1.9 ± 0.15 | 2.25 ± 0.18 | – | 2.33 ± 0.08
GLIPYPHHNQSPRNTYQ [RET1] | 2.58 ± 0.078 | 2.77 ± 0.095 | 2.83 ± 0.069 | 2.93 ± 0.069
GLIYSFNEENGEDSTKP [POP1] | 3.25 ± 0.098 | 3.21 ± 0.18 | 2.86 ± 0.26 | 3.1 ± 0.17
GLMSANNIIAEGIEKMG [FAS2] | 1.68 ± 0.12 | 1.74 ± 0.098 | 1.58 ± 0.18 | 1.48 ± 0.084
GLQNVRKVRTKKWKKYW [SWP82] | 3.6 ± 0.2 | – | 3.26 ± 0.25 | –
GLRNQNMVRNNNNNTID [GRR1] | 2.75 ± 0.063 | 2.86 ± 0.071 | 2.83 ± 0.057 | 2.96 ± 0.038
GLSAREAVKQAAKIIYL [PRE10] | 2.86 ± 0.096 | 2.59 ± 0.063 | 2.59 ± 0.1 | 2.52 ± 0.053
GLTSRLQRQQRKSKLNL [POP4] | 2.65 ± 0.12 | 3.34 ± 0.18 | 3.09 ± 0.063 | 3.67 ± 0.27
GLVKQHLDSFNYFVDTD [RET1] | 3.46 ± 0.17 | 3.05 ± 0.097 | 2.97 ± 0.11 | 3.36 ± 0.075

Sequence | protein stability index (doa10∆) | protein stability index (pdr5∆) | protein stability index (san1∆) | protein stability index (ubr1∆)
GNAKESKALLREISNFS [SRP72] | 2.97 ± 0.17 | 2.94 ± 0.13 | 2.7 ± 0.14 | 3.01 ± 0.15
GNIDTKNNILGSNVLKS [RRP43] | 2.86 ± 0.039 | 2.97 ± 0.044 | 2.92 ± 0.032 | 3.041 ± 0.027
GNISSSTVKKKDIVNIS [REC8] | 3.03 ± 0.063 | 3.07 ± 0.056 | 2.88 ± 0.044 | 3.02 ± 0.05
GNKALEDEEEFSIFNYF [RPC34] | 3.21 ± 0.13 | 3.37 ± 0.14 | – | –
GNSEAIPGLSAGVNNDN [RTT102] | 3.21 ± 0.086 | 3.53 ± 0.082 | 3.39 ± 0.069 | 3.47 ± 0.084
GNSFHLMRELLKMMKLI [PRP8] | 2.78 ± 0.051 | 2.41 ± 0.046 | 2.6 ± 0.065 | 2.43 ± 0.049
GPENALNVYHYFGENSS [YJL039C/NUP192] | 2.05 ± 0.032 | 2.05 ± 0.042 | 2.06 ± 0.053 | 2.65 ± 0.031
GPRAVLTRQPTEGRSRD [RET1] | 3.43 ± 0.091 | 3.35 ± 0.066 | 3.1 ± 0.067 | 3.34 ± 0.057
GPSAMRLSRCIRDNKLV [RPC82] | 1.94 ± 0.14 | 2.23 ± 0.13 | 1.58 ± 0.15 | 2.15 ± 0.099
GQLEDFDSELIHLKQKL [SMC3] | – | 2.89 ± 0.16 | 3.23 ± 0.15 | 2.95 ± 0.17
GQLISLLFEDLFKKFNN [RET1] | 3.1 ± 0.17 | 3.22 ± 0.23 | 3.34 ± 0.15 | –
GQVVLTPLTFALPRGAR [RPL14A] | 1.5 ± 0.074 | 1.55 ± 0.071 | 1.18 ± 0.11 | 1.89 ± 0.073
GRFLRVPKEGLFYFDSS [BRR2] | 3.18 ± 0.11 | 3.32 ± 0.073 | 3.3 ± 0.081 | 3.1 ± 0.054
GRIRTTREDVSPHYNSQ [SSN3] | 1.81 ± 0.067 | 2.02 ± 0.091 | 1.89 ± 0.07 | 1.73 ± 0.11
GRNLGRIGTIVHKERHD [RPS4A] | 2.42 ± 0.13 | 2.03 ± 0.098 | 2.5 ± 0.059 | 2.63 ± 0.061
GRQTVLIKDNSAMVTTA [SRB2] | – | 1.8 ± 0.28 | – | –
GRRLSMLASQANGGSTI [DSN1] | 2.1 ± 0.057 | 2.7 ± 0.074 | 2.42 ± 0.071 | 2.29 ± 0.047
GRTGNGNMGITTEMLDK [MED6] | 3.23 ± 0.069 | 3.23 ± 0.062 | 3.28 ± 0.047 | 3.27 ± 0.04
GRVYRPLFIVEDDESLG [RPB2] | 1.71 ± 0.063 | 1.8 ± 0.087 | 1.59 ± 0.1 | 1.69 ± 0.034
GSAATSGFEFSKEDTLR [RPN1] | 2.61 ± 0.15 | 3.14 ± 0.16 | 2.72 ± 0.15 | 3.08 ± 0.13
GSAITGPVGKECADLWP [RPL23A] | 2.44 ± 0.11 | 2.75 ± 0.085 | 2.83 ± 0.067 | 2.64 ± 0.064
GSARTRWEMEAFGEFSL [FAS2] | 1.78 ± 0.072 | 2.92 ± 0.13 | 2.93 ± 0.098 | 2.24 ± 0.098
GSGNNNEIESRQLTSLG [SNU114] | 3.4 ± 0.16 | 3.32 ± 0.16 | – | 3.19 ± 0.19
GSKSASKQTPQPKAPRA [ISW2] | 3.08 ± 0.076 | 3.17 ± 0.12 | 2.76 ± 0.1 | 3.23 ± 0.08
GSLARAGKVKSQTPKVE [RPS30A] | 2.71 ± 0.06 | 2.7 ± 0.069 | 2.69 ± 0.058 | 2.57 ± 0.05
